Legend:
[1] = molecular target: human PTK7 expressed on cells (cancer cell lines with endogenous PTK7; HEK293T-PTK7 over-expressing cells) (human) (UniProt Q13308); assay: flow cytometry, Kasumi-1 cells, 10 µg/ml Ab
[2] = molecular target: human PTK7 expressed on cells (cancer cell lines with endogenous PTK7; HEK293T-PTK7 over-expressing cells) (human) (UniProt Q13308); assay: flow cytometry, THP-1 cells, 10 µg/ml Ab
[3] = molecular target: human PTK7 expressed on cells (cancer cell lines with endogenous PTK7; HEK293T-PTK7 over-expressing cells) (human) (UniProt Q13308); assay: flow cytometry, H446 cells, 10 µg/ml Ab
[4] = molecular target: human PTK7 expressed on cells (cancer cell lines with endogenous PTK7; HEK293T-PTK7 over-expressing cells) (human) (UniProt Q13308); assay: flow cytometry, HCT116 cells, 10 µg/ml Ab
[5] = molecular target: human PTK7 expressed on cells (cancer cell lines with endogenous PTK7; HEK293T-PTK7 over-expressing cells) (human) (UniProt Q13308); assay: flow cytometry, MDAMB361-DYT2 cells, 10 µg/ml Ab
[6] = molecular target: human PTK7 expressed on cells (cancer cell lines with endogenous PTK7; HEK293T-PTK7 over-expressing cells) (human) (UniProt Q13308); assay: flow cytometry, SKBR3 cells, 10 µg/ml Ab
[7] = molecular target: human PTK7 expressed on cells (cancer cell lines with endogenous PTK7; HEK293T-PTK7 over-expressing cells) (human) (UniProt Q13308); assay: flow cytometry, BxPC3 cells, 10 µg/ml Ab
[8] = molecular target: human PTK7 expressed on cells (cancer cell lines with endogenous PTK7; HEK293T-PTK7 over-expressing cells) (human) (UniProt Q13308); assay: flow cytometry, HEL cells, 10 µg/ml Ab
[9] = molecular target: human PTK7 expressed on cells (cancer cell lines with endogenous PTK7; HEK293T-PTK7 over-expressing cells) (human) (UniProt Q13308); assay: flow cytometry, K562 cells, 10 µg/ml Ab
[10] = molecular target: human PTK7 expressed on cells (cancer cell lines with endogenous PTK7; HEK293T-PTK7 over-expressing cells) (human) (UniProt Q13308); assay: flow cytometry, RPMI8226 cells, 10 µg/ml Ab
[11] = molecular target: human PTK7 expressed on cells (cancer cell lines with endogenous PTK7; HEK293T-PTK7 over-expressing cells) (human) (UniProt Q13308); assay: flow cytometry, MV411 cells, 10 µg/ml Ab
[12] = molecular target: human PTK7 expressed on cells (cancer cell lines with endogenous PTK7; HEK293T-PTK7 over-expressing cells) (human) (UniProt Q13308); assay: flow cytometry, H1299 cells, 10 µg/ml Ab
[13] = molecular target: human PTK7 expressed on cells (cancer cell lines with endogenous PTK7; HEK293T-PTK7 over-expressing cells) (human) (UniProt Q13308); assay: flow cytometry, U937 cells, 10 µg/ml Ab
[14] = molecular target: human PTK7 expressed on cells (cancer cell lines with endogenous PTK7; HEK293T-PTK7 over-expressing cells) (human) (UniProt Q13308); assay: flow cytometry, H2110 cells, 10 µg/ml Ab
[15] = molecular target: human PTK7 expressed on cells (cancer cell lines with endogenous PTK7; HEK293T-PTK7 over-expressing cells) (human) (UniProt Q13308); assay: flow cytometry, HL60 MX2 cells, 10 µg/ml Ab
[16] = molecular target: human PTK7 expressed on cells (cancer cell lines with endogenous PTK7; HEK293T-PTK7 over-expressing cells) (human) (UniProt Q13308); assay: flow cytometry, DU4475 cells, 10 µg/ml Ab
[17] = molecular target: human PTK7 expressed on cells (cancer cell lines with endogenous PTK7; HEK293T-PTK7 over-expressing cells) (human) (UniProt Q13308); assay: flow cytometry, H596 cells, 10 µg/ml Ab
[18] = molecular target: human PTK7 expressed on cells (cancer cell lines with endogenous PTK7; HEK293T-PTK7 over-expressing cells) (human) (UniProt Q13308); assay: flow cytometry, TF1 cells, 10 µg/ml Ab
[19] = molecular target: human PTK7 expressed on cells (cancer cell lines with endogenous PTK7; HEK293T-PTK7 over-expressing cells) (human) (UniProt Q13308); assay: flow cytometry, HCC1806 cells, 10 µg/ml Ab
[20] = molecular target: human PTK7 expressed on cells (cancer cell lines with endogenous PTK7; HEK293T-PTK7 over-expressing cells) (human) (UniProt Q13308); assay: flow cytometry, HCC827 cells, 10 µg/ml Ab
[21] = molecular target: human PTK7 expressed on cells (cancer cell lines with endogenous PTK7; HEK293T-PTK7 over-expressing cells) (human) (UniProt Q13308); assay: flow cytometry, HL60 cells, 10 µg/ml Ab
[22] = molecular target: human PTK7 expressed on cells (cancer cell lines with endogenous PTK7; HEK293T-PTK7 over-expressing cells) (human) (UniProt Q13308); assay: flow cytometry, MiaPaca cells, 10 µg/ml Ab
[23] = molecular target: human PTK7 expressed on cells (cancer cell lines with endogenous PTK7; HEK293T-PTK7 over-expressing cells) (human) (UniProt Q13308); assay: flow cytometry, H661 cells, 10 µg/ml Ab
[24] = molecular target: human PTK7 expressed on cells (cancer cell lines with endogenous PTK7; HEK293T-PTK7 over-expressing cells) (human) (UniProt Q13308); assay: flow cytometry, Raji cells, 10 µg/ml Ab
[25] = molecular target: human PTK7 expressed on cells (cancer cell lines with endogenous PTK7; HEK293T-PTK7 over-expressing cells) (human) (UniProt Q13308); assay: flow cytometry, H1975 cells, 10 µg/ml Ab
[26] = molecular target: human PTK7 expressed on cells (cancer cell lines with endogenous PTK7; HEK293T-PTK7 over-expressing cells) (human) (UniProt Q13308); assay: flow cytometry, MDAMB436 cells, 10 µg/ml Ab
[27] = molecular target: human PTK7 expressed on cells (cancer cell lines with endogenous PTK7; HEK293T-PTK7 over-expressing cells) (human) (UniProt Q13308); assay: flow cytometry, H520 cells, 10 µg/ml Ab
[28] = molecular target: human PTK7 expressed on cells (cancer cell lines with endogenous PTK7; HEK293T-PTK7 over-expressing cells) (human) (UniProt Q13308); assay: flow cytometry, EKVX cells, 10 µg/ml Ab

human PTK7 expressed on cells (cancer cell lines with endogenous PTK7; HEK293T-PTK7 over-expressing cells) (human), sequence (Q13308 31-1070 L93P limits assumed): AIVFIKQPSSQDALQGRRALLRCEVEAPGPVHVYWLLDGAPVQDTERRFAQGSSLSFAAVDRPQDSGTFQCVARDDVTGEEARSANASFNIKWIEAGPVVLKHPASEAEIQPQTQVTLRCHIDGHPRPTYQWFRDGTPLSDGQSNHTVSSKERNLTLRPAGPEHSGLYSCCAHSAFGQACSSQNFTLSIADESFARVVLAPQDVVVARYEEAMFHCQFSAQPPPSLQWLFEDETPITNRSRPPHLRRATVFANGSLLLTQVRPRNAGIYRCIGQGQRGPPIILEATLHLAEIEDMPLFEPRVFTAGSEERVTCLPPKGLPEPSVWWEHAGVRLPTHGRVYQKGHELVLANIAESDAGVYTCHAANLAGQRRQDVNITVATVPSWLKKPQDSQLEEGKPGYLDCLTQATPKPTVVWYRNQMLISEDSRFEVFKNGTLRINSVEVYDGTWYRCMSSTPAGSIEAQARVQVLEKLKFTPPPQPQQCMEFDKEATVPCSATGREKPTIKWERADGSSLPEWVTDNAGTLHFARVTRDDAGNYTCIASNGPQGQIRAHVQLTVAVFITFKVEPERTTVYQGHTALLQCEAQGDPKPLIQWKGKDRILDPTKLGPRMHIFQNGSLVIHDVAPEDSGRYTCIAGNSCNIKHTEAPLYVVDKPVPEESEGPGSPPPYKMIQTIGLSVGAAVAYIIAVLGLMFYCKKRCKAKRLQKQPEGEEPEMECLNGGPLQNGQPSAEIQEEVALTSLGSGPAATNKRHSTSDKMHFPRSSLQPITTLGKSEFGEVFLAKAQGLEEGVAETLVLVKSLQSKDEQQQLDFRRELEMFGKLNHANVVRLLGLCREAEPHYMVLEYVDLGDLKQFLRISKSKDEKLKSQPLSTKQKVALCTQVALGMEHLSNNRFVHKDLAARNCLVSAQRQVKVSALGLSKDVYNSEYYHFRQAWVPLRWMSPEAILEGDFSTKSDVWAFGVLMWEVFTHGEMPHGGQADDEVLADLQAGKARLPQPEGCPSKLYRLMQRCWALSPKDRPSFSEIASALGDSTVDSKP

Mean Fluorescent Intensity [1]: 5.3
Mean Fluorescent Intensity [2]: 4
Mean Fluorescent Intensity [3]: 7.1
Mean Fluorescent Intensity [4]: 17.8
Mean Fluorescent Intensity [5]: 8.7
Mean Fluorescent Intensity [6]: 14.9
Mean Fluorescent Intensity [7]: 4.6
Mean Fluorescent Intensity [8]: 15.7
Mean Fluorescent Intensity [9]: 54.7
Mean Fluorescent Intensity [10]: 8.3
Mean Fluorescent Intensity [11]: 7.7
Mean Fluorescent Intensity [12]: 3
Mean Fluorescent Intensity [13]: 5
Mean Fluorescent Intensity [14]: 4.9
Mean Fluorescent Intensity [15]: 25.2
Mean Fluorescent Intensity [16]: 3.8
Mean Fluorescent Intensity [17]: 21.4
Mean Fluorescent Intensity [18]: 5.9
Mean Fluorescent Intensity [19]: 4.6
Mean Fluorescent Intensity [20]: 5.8
Mean Fluorescent Intensity [21]: 10.9
Mean Fluorescent Intensity [22]: 3.5
Mean Fluorescent Intensity [23]: 3.8
Mean Fluorescent Intensity [24]: 20.3
Mean Fluorescent Intensity [25]: 4.8
Mean Fluorescent Intensity [26]: 3.5
Mean Fluorescent Intensity [27]: 4.8
Mean Fluorescent Intensity [28]: 3.1
Substance: Negative Control Ab (Table 8) (antibody)
